Measurements from patent US20140274782A1, “AFFINITY REAGENTS AND METHODS FOR DETECTION, PURIFICATION, AND PROTEOMIC ANALYSIS OF METHYLATED PROTEINS” (The Board of Trustees of the Leland Stanford Junior …, priority 2013, published 2014).

Assays:
[1] = target: T1, G9a and GLP (Homo sapiens, UniProt Q96KQ7+Q9H9B1); experiment: Triple SILAC pull-down after UNC0638 treatment of 293T cells, DMSO/UNC0638 ratio of protein captured by 3×MBT; format: cell-based; design: cells were treated for 24 hours with UNC0638 at 2.5 μM or DMSO vehicle control; endogenous in cells; host or cells: HEK 293T; conditions: all values in log base 2;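 also: mass spectrometry (Q-Exactive) SILAC quantitation, DMSO/UNC0638 ratio computed after subtracting 3×MBTD355N mutant pull-down background, only proteins with at least twofold 3×MBT over mutant signal considered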
T1 sequence (Q96KQ7 2-1210 limits assumed): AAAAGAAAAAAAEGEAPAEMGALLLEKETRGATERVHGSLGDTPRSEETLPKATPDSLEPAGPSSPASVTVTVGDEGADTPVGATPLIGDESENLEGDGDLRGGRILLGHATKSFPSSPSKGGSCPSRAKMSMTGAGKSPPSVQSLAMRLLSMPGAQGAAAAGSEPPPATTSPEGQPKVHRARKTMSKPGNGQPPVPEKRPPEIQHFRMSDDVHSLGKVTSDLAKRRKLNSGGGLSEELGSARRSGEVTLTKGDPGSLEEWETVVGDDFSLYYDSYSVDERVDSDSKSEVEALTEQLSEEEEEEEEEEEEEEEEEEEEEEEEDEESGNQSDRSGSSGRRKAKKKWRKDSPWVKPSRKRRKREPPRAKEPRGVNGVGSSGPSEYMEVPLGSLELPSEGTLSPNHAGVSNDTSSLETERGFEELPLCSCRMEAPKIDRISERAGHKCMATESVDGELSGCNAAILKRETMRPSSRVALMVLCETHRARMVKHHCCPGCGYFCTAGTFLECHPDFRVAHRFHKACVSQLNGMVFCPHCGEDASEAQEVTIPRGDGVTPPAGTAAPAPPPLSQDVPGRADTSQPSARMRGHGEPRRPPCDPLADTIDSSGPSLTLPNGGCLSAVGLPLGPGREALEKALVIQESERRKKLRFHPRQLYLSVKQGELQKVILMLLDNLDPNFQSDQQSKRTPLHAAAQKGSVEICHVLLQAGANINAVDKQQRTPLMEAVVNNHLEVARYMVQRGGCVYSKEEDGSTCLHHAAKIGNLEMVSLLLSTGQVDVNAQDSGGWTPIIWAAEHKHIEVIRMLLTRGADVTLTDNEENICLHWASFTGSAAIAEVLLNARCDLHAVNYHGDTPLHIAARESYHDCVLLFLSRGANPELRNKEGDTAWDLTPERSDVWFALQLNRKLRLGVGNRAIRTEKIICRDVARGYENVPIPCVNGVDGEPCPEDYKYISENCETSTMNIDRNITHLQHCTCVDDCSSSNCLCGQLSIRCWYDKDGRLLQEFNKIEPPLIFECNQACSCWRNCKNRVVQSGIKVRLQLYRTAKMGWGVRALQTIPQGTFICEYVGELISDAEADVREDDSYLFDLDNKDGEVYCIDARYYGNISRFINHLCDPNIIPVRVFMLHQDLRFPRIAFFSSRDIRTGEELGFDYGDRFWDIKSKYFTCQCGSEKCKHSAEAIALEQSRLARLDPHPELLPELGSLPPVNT
T1 sequence (Q9H9B1 2-1298 limits assumed): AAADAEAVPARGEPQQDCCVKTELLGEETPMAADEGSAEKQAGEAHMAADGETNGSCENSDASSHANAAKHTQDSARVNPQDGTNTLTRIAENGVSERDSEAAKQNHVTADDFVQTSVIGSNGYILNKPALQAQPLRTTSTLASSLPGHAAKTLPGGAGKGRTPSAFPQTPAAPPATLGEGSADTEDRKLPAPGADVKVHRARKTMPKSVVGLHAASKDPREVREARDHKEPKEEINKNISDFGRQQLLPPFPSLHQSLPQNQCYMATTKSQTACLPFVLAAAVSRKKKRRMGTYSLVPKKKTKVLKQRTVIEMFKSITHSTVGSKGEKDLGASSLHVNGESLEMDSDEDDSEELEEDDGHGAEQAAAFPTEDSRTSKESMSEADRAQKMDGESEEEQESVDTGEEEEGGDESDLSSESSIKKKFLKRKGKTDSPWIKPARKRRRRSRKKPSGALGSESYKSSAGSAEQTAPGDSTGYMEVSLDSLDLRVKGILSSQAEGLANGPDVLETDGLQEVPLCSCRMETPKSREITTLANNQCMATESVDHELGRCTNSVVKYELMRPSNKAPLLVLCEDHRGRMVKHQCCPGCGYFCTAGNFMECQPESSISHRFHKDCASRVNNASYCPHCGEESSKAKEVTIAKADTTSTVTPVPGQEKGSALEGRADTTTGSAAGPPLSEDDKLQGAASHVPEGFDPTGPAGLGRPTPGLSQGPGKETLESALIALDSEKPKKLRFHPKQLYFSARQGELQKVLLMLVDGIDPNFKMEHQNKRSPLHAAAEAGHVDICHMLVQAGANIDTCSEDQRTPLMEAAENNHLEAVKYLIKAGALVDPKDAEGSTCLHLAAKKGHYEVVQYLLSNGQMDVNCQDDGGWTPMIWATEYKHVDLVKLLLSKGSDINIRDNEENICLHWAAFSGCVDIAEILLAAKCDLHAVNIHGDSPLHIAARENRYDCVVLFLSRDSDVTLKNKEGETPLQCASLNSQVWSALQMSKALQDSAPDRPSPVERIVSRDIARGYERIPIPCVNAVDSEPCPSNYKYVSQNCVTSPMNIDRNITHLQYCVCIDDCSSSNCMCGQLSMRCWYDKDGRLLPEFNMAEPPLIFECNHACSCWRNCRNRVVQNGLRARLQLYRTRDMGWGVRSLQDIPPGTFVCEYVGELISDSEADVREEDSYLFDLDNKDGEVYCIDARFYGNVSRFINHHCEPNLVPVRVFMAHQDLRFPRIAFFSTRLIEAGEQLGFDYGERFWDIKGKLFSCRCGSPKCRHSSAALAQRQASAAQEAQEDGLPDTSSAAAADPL

[2] = tested on: 3×MBT domain of L3MBTL1; experiment: Triple SILAC pull-down, 3xMBT/3xMBTD355N ratio (cytoplasmic, nuclear and chromatin fractions of 293T cells); format: binding, human; conditions: SILAC ratio 3xMBT vs 3xMBTD355N pull-down, 293T cells, all values in log base 2;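 also: proteins quantified with MaxQuant, requiring at least two unique peptides and quantification in both label directions, normalized to the mean of proteins from a digested loading control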

B1: SCML2: protein with methylated lysine identified in 3xMBT pull-down (protein, UniProt Q9UQR0 1-700, looked up)
Sex comb on midleg-like …: MGQTVNEDSMDVKKENQEKTPQSSTSSVQRDDFHWEEYLKETGSISAPSECFRQSQIPPVNDFKVGMKLEARDPRNATSVCIATVIGITGARLRLRLDGSDNRNDFWRLVDSPDIQPVGTCEKEGDLLQPPLGYQMNTSSWPMFLLKTLNGSEMASATLFKKEPPKPPLNNFKVGMKLEAIDKKNPYLICPATIGDVKGDEVHITFDGWSGAFDYWCKYDSRDIFPAGWCRLTGDVLQPPGTSVPIVKNIAKTESSPSEASQHSMQSPQKTTLILPTQQVRRSSRIKPPGPTAVPKRSSSVKNITPRKKGPNSGKKEKPLPVICSTSAASLKSLTRDRGMLYKDVASGPCKIVMSTVCVYVNKHGNFGPHLDPKRIQQLPDHFGPGPVNVVLRRIVQACVDCALETKTVFGYLKPDNRGGEVITASFDGETHSIQLPPVNSASFALRFLENFCHSLQCDNLLSSQPFSSSRGHTHSSAEHDKNQSAKEDVTERQSTKRSPQQTVPYVVPLSPKLPKTKEYASEGEPLFAGGSAIPKEENLSEDSKSSSLNSGNYLNPACRNPMYIHTSVSQDFSRSVPGTTSSPLVGDISPKSSPHEVKFQMQRKSEAPSYIAVPDPSVLKQGFSKDPSTWSVDEVIQFMKHTDPQISGPLADLFRQHEIDGKALFLLKSDVMMKYMGLKLGPALKLCYYIEKLKEGKYS
Q: What does the source list for B1?
A: Relative to UNC0638 UNC Heavy ([1]; SILAC ratio DMSO relative to UNC0638, pull-down with 3xMBT, UNC0638 in heavy SILAC media): 0.59 log base 2; Relative to UNC0638 UNC Light ([1]; SILAC ratio DMSO relative to UNC0638, pull-down with 3xMBT, UNC0638 in light SILAC media): −0.85 log base 2; Relative to UNC0638 Average ([1]; average of UNC Light and UNC Heavy experiments): −0.13 log base 2; 3xMBT/D355N UNC Heavy ([2]; experiment with UNC0638 in heavy SILAC media): 1.39 log base 2; 3xMBT/D355N UNC Light ([2]; experiment with UNC0638 in light SILAC media): 1.28 log base 2
